B1: vIRF4^202-216 peptide (vif1) (peptide)
peptide: SVWIPVNEGASTSGM
notes: Synthesized peptide (Peptron); also called vif1 peptide
B2: vIRF4^153-256 (other)
chain: SDTREQSYEEAGAAAPAPPKAPSGLRGRPRKSNRYYNVGDITTEQKAACSVWIPVNEGASTSGMGSSGTRQVTQASSFTWRVPGDPPAPSTLTGPSDPHSSGAG

Assays:
[1] = molecular target: HAUSP TRAF domain (HAUSP^62-205) (human); test: ITC, titration against HAUSP TRAF domain, 20 °C
[2] = molecular target: HAUSP TRAF domain (HAUSP^62-205) (human); test: competitive ITC: vIRF4^202-216 titrated into TRAF pre-titrated with MDM2^137-152 (competitor)
[3] = molecular target: HAUSP TRAF domain (HAUSP^62-205) (human); test: competitive ITC: vIRF4^202-216 titrated into TRAF pre-titrated with p53^350-364 (competitor)
[4] = molecular target: HAUSP TRAF domain (HAUSP^62-205) (human); test: competitive ITC: vIRF4^202-216 titrated into TRAF pre-titrated with p53^355-369 (competitor)
[5] = molecular target: HAUSP TRAF domain (HAUSP^62-205) (human); test: ITC

Sequence of HAUSP TRAF domain (HAUSP^62-205) (human) (chain, as listed by the source): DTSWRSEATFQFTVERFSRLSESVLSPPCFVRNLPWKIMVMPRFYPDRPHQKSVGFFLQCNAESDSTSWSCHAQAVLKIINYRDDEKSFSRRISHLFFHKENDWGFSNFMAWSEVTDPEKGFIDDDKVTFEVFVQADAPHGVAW

| Binder | TΔS [1] [kcal/mol] | ΔG [1] [kcal/mol] | ΔH [1] [kcal/mol] | ΔHobs [2] [kcal/mol] | ΔHobs [3] [kcal/mol] | ΔHobs [4] [kcal/mol] | fold higher affinity (against vIRF4^153-216) [5] [fold] |
| --- | --- | --- | --- | --- | --- | --- | --- |
| B1 | -10.6 | -8.6 | -19.2 | -25.9 | -19.1 | -19.1 | – |
| B2 | – | – | – | – | – | – | 7 |

— US20130330358A1 (UNIVERSITY OF SOUTHERN CALIFORNIA, published 2013)
